This is an account of results in publication PMC8552062, “Contributions of UDP-Glucuronosyltransferases to Human Hepatic and Intestinal Metabolism of Ticagrelor and Inhibition of UGTs and Cytochrome P450 Enzymes by Ticagrelor and its Glucuronidated Metabolite” (Frontiers in Pharmacology, 2021).

The test system of series [1] is ticagrelor glucuronidation in pooled HLM. As to the kind of experiment: Effects of typical UGT inhibitors on ticagrelor glucuronidation in pooled HLM. It is filed as in vitro ADME, human. Conditions: 10 μM ticagrelor. Here is the method: (§1) Ticagrelor glucuronidation was investigated in an in vitro incubation system by using HLM, HIM, and recombinant human UGTs. The incubation system consisted of enzyme sources (HLM, HIM, or human recombinant UGTs), various concentrations of ticagrelor (dissolved in 50% methanol, 1% v/v, 1, 2, 5, 10, 20, 50, 100, 200, 500 μM of final concentration), alamethicin (50 μg/mg protein), 5 mM MgCl2, 100 mM tris-HCL buffer (pH 7.4), and 5 mM UDPGA in a total volume of 100 μl. Alamethicin is a pore-forming polypeptide used to activate UGTs in HLM and HIM ([Fisher et al., 2000]). Preliminary studies were conducted to determine the optimal protein concentrations and incubation times. Linear conditions of ticagrelor-O-Glu formation from ticagrelor, i.e., HLM, 0.2 mg of protein/ml and 60 min, HIM, 0.2 mg of protein/ml and 60 min, and recombinant human UGTs, 0.2 mg of protein/ml and 60 min were selected. The incubation mixture without UDPGA was placed on ice for 15 min to activate UGT by alamethicin. After pre-incubation for 5 min at 37°C, the reactions were started by the addition of UDPGA. After another 60 min of incubation at 37°C, the reaction was terminated by adding 100 μl of acetonitrile containing internal standard (diazepam). The mixture vortexed for 2 min and then centrifuged at 14,000 rpm for 10 min at 4°C. The resulting supernatant was injected into a liquid chromatography tandem mass spectrometry (LC-MS/MS, Applied Biosystems/MDS Sciex, Foster City, CA) system for the detection of ticagrelor-O-Glu.
(§2) The final concentrations of UGT inhibitors for each UGT isoform were set in accordance with previous publications as follows: atazanavir, 1 μM, UGT1A1; celastrol, 5 μM, UGT1A3; hecogenin, 1 μM, UGT1A4; niflumic acid, 1 μM, UGT1A9; and mefenamic acid, 20 μM, UGT2B7 ([Lee et al., 2019]). The assays were performed as described above, with 10 μM ticagrelor. The percentage of remaining glucuronidation activity was expressed by the following equation: Remaining activity(%)=Concentration of ticagrelor-O-Glu with inhibitor /Concentration of ticagrelor-O-Glu without inhibitor×100.

Series [2] has as its system ticagrelor glucuronidation in pooled HIM. Kind of series: Effects of typical UGT inhibitors on ticagrelor glucuronidation in pooled HIM. It is filed as in vitro ADME, human. Conditions: 10 μM ticagrelor. The method, then:
as §1, §2

Substrate in series [3]: CCCSc1nc(N[C@@H]2C[C@H]2c2ccc(F)c(F)c2)c2nnn([C@@H]3C[C@H](OCCO)[C@@H](O)[C@H]3O)c2n1
As to the kind of experiment: Ticagrelor glucuronidation by recombinant human UGT2B7. It is filed as in vitro ADME. Conditions: other: recombinant UGT2B7, Michaelis-Menten kinetics; pH 7.4; 37.0 °C. Here is the method:
as §1
(§3) Kinetic analyses were performed using the mean values of triplicate determinations with either pooled HLM, HIM, or recombinant human UGTs. All data were analyzed by nonlinear regression analysis using the GraphPad Prism 6 (GraphPad Software Inc., CA, United States). Michaelis-Menten kinetics (Eq. 1) or substrate inhibition kinetics (Eq. 2) ([Houston and Kenworthy, 2000]) were tested to determine the optimal model for describing the data. […] Intrinsic clearance (CLint) was calculated by dividing Vmax by Km.

Substrate in series [4]: CCCSc1nc(N[C@@H]2C[C@H]2c2ccc(F)c(F)c2)c2nnn([C@@H]3C[C@H](OCCO)[C@@H](O)[C@H]3O)c2n1
As to the kind of experiment: Ticagrelor glucuronidation by recombinant human UGT1A8. Conditions: other: recombinant UGT1A8, Michaelis-Menten kinetics; pH 7.4; 37.0 °C. The series is classed as in vitro ADME. The method, then: as §1, §3

Substrate in series [5]: CCCSc1nc(N[C@@H]2C[C@H]2c2ccc(F)c(F)c2)c2nnn([C@@H]3C[C@H](OCCO)[C@@H](O)[C@H]3O)c2n1
Kind of series: Ticagrelor glucuronidation by recombinant human UGT1A1. It is filed as in vitro ADME. Conditions: other: recombinant UGT1A1, Michaelis-Menten kinetics; pH 7.4; 37.0 °C. The method, then:
as §1, §3

Substrate in series [6]: CCCSc1nc(N[C@@H]2C[C@H]2c2ccc(F)c(F)c2)c2nnn([C@@H]3C[C@H](OCCO)[C@@H](O)[C@H]3O)c2n1
As to the kind of experiment: Ticagrelor glucuronidation by recombinant human UGT1A7. It is filed as in vitro ADME. Conditions: other: recombinant UGT1A7, Michaelis-Menten kinetics; pH 7.4; 37.0 °C. Here is the method:
as §1, §3

Substrate in series [7]: CCCSc1nc(N[C@@H]2C[C@H]2c2ccc(F)c(F)c2)c2nnn([C@@H]3C[C@H](OCCO)[C@@H](O)[C@H]3O)c2n1
Kind of series: Ticagrelor glucuronidation by recombinant human UGT1A9. The series is classed as in vitro ADME. Conditions: other: recombinant UGT1A9, Michaelis-Menten kinetics; pH 7.4; 37.0 °C. Here is the method:
as §1, §3

As for `COC(=O)N[C@H](C(=O)N[C@@H](Cc1ccccc1)[C@@H](O)CN(Cc1ccc(-c2ccccn2)cc1)NC(=O)[C@@H](NC(=O)OC)C(C)(C)C)C(C)(C)C` [atazanavir], the “inhibition of ticagrelor-O-Glu formation” value in series [1] (inhibitor 1 μM) was 6.66%; in series [2] (inhibitor 1 μM), 6.08%.
On to `CC1=C(O)C(=O)C=C2C1=CC=C1[C@@]2(C)CC[C@@]2(C)[C@@H]3C[C@](C)(C(=O)O)CC[C@]3(C)CC[C@]12C` [celastrol], for which the “inhibition of ticagrelor-O-Glu formation” value in series [1] (inhibitor 5 μM) is 19.35%; in series [2] (inhibitor 5 μM) it was 25.02%.
With `Cc1cccc(Nc2ccccc2C(=O)O)c1C` [mefenamic acid], the “inhibition of ticagrelor-O-Glu formation” value in series [1] (inhibitor 20 μM) is given as 42.95%; in series [2] (inhibitor 20 μM), 19.24%.
Consider `O=C(O)c1cccnc1Nc1cccc(C(F)(F)F)c1` [niflumic acid], for which the “inhibition of ticagrelor-O-Glu formation” value in series [1] (inhibitor 1 μM) was 35.48%; in series [2] (inhibitor 1 μM), 17.45%.
As for hecogenin, the “inhibition of ticagrelor-O-Glu formation” value was determined as 9.29% in series [1] (inhibitor 1 μM) and 16.75% in series [2] (inhibitor 1 μM).

B1: recombinant human UGT2B7 (Homo sapiens) (protein)
chain: GKVLVWAAEYSHWMNIKTILDELIQRGHEVTVLASSASILFDPNNSSALKIEIYPTSLTKTELENFIMQQIKRWSDLPKDTFWLYFSQVQEIMSIFGDITRKFCKDVVSNKKFMKKVQESRFDVIFADAIFPCSELLAELFNIPFVYSLSFSPGYTFEKHSGGFIFPPSYVPVVMSELTDQMTFMERVKNMIYVLYFDFWFEIFDMKKWDQFYSEVLGRPTTLSETMGKADVWLIRNSWNFQFPYPLLPNVDFVGGLHCKPAKPLPKEMEDFVQSSGENGVVVFSLGSMVSNMTEERANVIASALAQIPQKVLWRFDGNKPDTLGLNTRLYKWIPQNDLLGHPKTRAFITHGGANGIYEAIYHGIPMVGIPLFADQPDNIAHMKARGAAVRVDFNTMSSTDLLNALKRVINDPSYKENVMKLSRIQHDQPVKPLDRAVFWIEFVMRHKGAKHLRVAAHDLTWFQYHSLDVIGFLLVCVATVIFIVTKCCLFCFWKFARKAKKGKND
notes: purchased BD Gentest; host or cells: baculovirus-infected insect cells
Regarding B1, in series [3], the Km (as a rule, the substrate concentration at which the rate is half of its maximum) worked out at 14.53 µM; the Vmax (as a rule, the rate approached at saturating substrate) is 2.3e-07 µmol/min/mg; the Vmax/Km was found to be 0.02 µL/min/mg.

B2: recombinant human UGT1A8 (Homo sapiens) (protein)
chain: GKLLVVPMDGSHWFTMQSVVEKLILRGHEVVVVMPEVSWQLGKSLNCTVKTYSTSYTLEDLDREFMDFADAQWKAQVRSLFSLFLSSSNGFFNLFFSHCRSLFNDRKLVEYLKESSFDAVFLDPFDACGLIVAKYFSLPSVVFARGIACHYLEEGAQCPAPLSYVPRILLGFSDAMTFKERVRNHIMHLEEHLFCQYFSKNALEIASEILQTPVTAYDLYSHTSIWLLRTDFVLDYPKPVMPNMIFIGGINCHQGKPLPMEFEAYINASGEHGIVVFSLGSMVSEIPEKKAMAIADALGKIPQTVLWRYTGTRPSNLANNTILVKWLPQNDLLGHPMTRAFITHAGSHGVYESICNGVPMVMMPLFGDQMDNAKRMETKGAGVTLNVLEMTSEDLENALKAVINDKSYKENIMRLSSLHKDRPVEPLDLAVFWVEFVMRHKGAPHLRPAAHDLTWYQYHSLDVIGFLLAVVLTVAFITFKCCAYGYRKCLGKKGRVKKAHKSKTH
notes: as for B1
On to B2, for which, in series [4], the Km worked out at 6.63 µM, the Vmax was 9e-08 µmol/min/mg and the Vmax/Km turned out to be 0.01 µL/min/mg.

B3: recombinant human UGT1A1 (Homo sapiens) (protein)
chain: HAGKILLIPVDGSHWLSMLGAIQQLQQRGHEIVVLAPDASLYIRDGAFYTLKTYPVPFQREDVKESFVSLGHNVFENDSFLQRVIKTYKKIKKDSAMLLSGCSHLLHNKELMASLAESSFDVMLTDPFLPCSPIVAQYLSLPTVFFLHALPCSLEFEATQCPNPFSYVPRPLSSHSDHMTFLQRVKNMLIAFSQNFLCDVVYSPYATLASEFLQREVTVQDLLSSASVWLFRSDFVKDYPRPIMPNMVFVGGINCLHQNPLSQEFEAYINASGEHGIVVFSLGSMVSEIPEKKAMAIADALGKIPQTVLWRYTGTRPSNLANNTILVKWLPQNDLLGHPMTRAFITHAGSHGVYESICNGVPMVMMPLFGDQMDNAKRMETKGAGVTLNVLEMTSEDLENALKAVINDKSYKENIMRLSSLHKDRPVEPLDLAVFWVEFVMRHKGAPHLRPAAHDLTWYQYHSLDVIGFLLAVVLTVAFITFKCCAYGYRKCLGKKGRVKKAHKSKTH
notes: as for B1
Take B3: in series [5], the Km was found to be 7.57 µM, the Vmax is 2e-07 µmol/min/mg and the Vmax/Km turned out to be 0.03 µL/min/mg.

B4: recombinant human UGT1A7 (Homo sapiens) (protein)
chain: GKLLVVPMDGSHWFTMQSVVEKLILRGHEVVVVMPEVSWQLGRSLNCTVKTYSTSYTLEDQDREFMVFADARWTAPLRSAFSLLTSSSNGIFDLFFSNCRSLFNDRKLVEYLKESCFDAVFLDPFDACGLIVAKYFSLPSVVFARGIFCHYLEEGAQCPAPLSYVPRLLLGFSDAMTFKERVWNHIMHLEEHLFCPYFFKNVLEIASEILQTPVTAYDLYSHTSIWLLRTDFVLEYPKPVMPNMIFIGGINCHQGKPVPMEFEAYINASGEHGIVVFSLGSMVSEIPEKKAMAIADALGKIPQTVLWRYTGTRPSNLANNTILVKWLPQNDLLGHPMTRAFITHAGSHGVYESICNGVPMVMMPLFGDQMDNAKRMETKGAGVTLNVLEMTSEDLENALKAVINDKSYKENIMRLSSLHKDRPVEPLDLAVFWVEFVMRHKGAPHLRPAAHDLTWYQYHSLDVIGFLLAVVLTVAFITFKCCAYGYRKCLGKKGRVKKAHKSKTH
notes: as for B1
Turning to B4, in series [6], the Km came out at 1.68 µM, the Vmax was found to be 1.2e-07 µmol/min/mg and the Vmax/Km amounted to 0.07 µL/min/mg.

B5: recombinant human UGT1A9 (Homo sapiens) (protein)
chain: GKLLVVPMDGSHWFTMRSVVEKLILRGHEVVVVMPEVSWQLGRSLNCTVKTYSTSYTLEDLDREFKAFAHAQWKAQVRSIYSLLMGSYNDIFDLFFSNCRSLFKDKKLVEYLKESSFDAVFLDPFDNCGLIVAKYFSLPSVVFARGILCHYLEEGAQCPAPLSYVPRILLGFSDAMTFKERVRNHIMHLEEHLLCHRFFKNALEIASEILQTPVTEYDLYSHTSIWLLRTDFVLDYPKPVMPNMIFIGGINCHQGKPLPMEFEAYINASGEHGIVVFSLGSMVSEIPEKKAMAIADALGKIPQTVLWRYTGTRPSNLANNTILVKWLPQNDLLGHPMTRAFITHAGSHGVYESICNGVPMVMMPLFGDQMDNAKRMETKGAGVTLNVLEMTSEDLENALKAVINDKSYKENIMRLSSLHKDRPVEPLDLAVFWVEFVMRHKGAPHLRPAAHDLTWYQYHSLDVIGFLLAVVLTVAFITFKCCAYGYRKCLGKKGRVKKAHKSKTH
notes: as for B1
As for B5, in series [7], the Km worked out at 1.60 µM, the Vmax was 9e-07 µmol/min/mg and the Vmax/Km came to 0.56 µL/min/mg.
